Assay results: US11795195B2, “Antibody-drug conjugates including hemiasterlin derivative” (Sumitomo Pharma Co., Ltd., priority 2017, dated 2023)

Test system: HL-60
Test: Cellular Toxicity Test (3) for ADCs
Format: cell-based
Settings: HL-60, treatment with 333 nM of ADC
Protocol: In accordance with the method described in Test Example 3 or Test Example 7, cellular toxicities of Example ADCs were measured using the cell types shown in the following table. As an indicator for the cellular toxicity, IC50 or the cell survival rate upon the treatment with 333 nM of ADC was measured. However, for ADC 51, the cell survival rate upon the treatment with 26.6 nM of ADC51 was measured.

B1: ADC54: ADC of Vadastuximab and M4, average DAR 5.3 (conjugate, chains of the INN, looked up)
VH: QVQLVQSGAEVKKPGASVKVSCKASGYTFTNYDINWVRQAPGQGLEWIGWIYPGDGSTKYNEKFKAKATLTADTSTSTAYMELRSLRSDDTAVYYCASGYEDAMDYWGQGTTVTVSS
VL: DIQMTQSPSSLSASVGDRVTINCKASQDINSYLSWFQQKPGKAPKTLIYRANRLVDGVPSRFSGSGSGQDYTLTISSLQPEDFATYYCLQYDEFPLTFGGGTKVEIK
modifications: drug-linker M4, DAR 5.3
Cell survival rate (%): 68%
